Target: CurA ACPI-ACPII-ACPIII tridomain
Assay: negative stain electron microscopy

percent existing as dimers: 25%
stoichiometry N: 2
Substance: CurA ACPI-ACPII-ACPIII tridomain (domain or fragment)

— article PMC3081611
